Experimental findings from patent US20080226722A1, “Gel Composition Comprising Charged Polymers” (priority 2004, published 2008) are described below.

A short description of series [1]: Protein release from gels comprising anionically and cationically charged microparticles (release buffer, 37° C., BCA Protein Assay). Type of series: physicochemical. To be noted: for time to reach a release of 50% of protein: HEPES pH 7 isotonised with NaCl, 37° C. As to the method: To each of the gels prepared according to example 5, 1.5 mL release buffer (HEPES, pH 7, 100 mM, isotonised with NaCl) was added. Subsequently, the cups were incubated at 37° C. Samples of 1.0 mL were taken at various intervals and replaced by 1.0 mL fresh buffer. The protein concentration in the samples was measured […] using the BCA Protein Assay.
Gels loaded with IgG were prepared in analogy to example 5 and tested in analogy to example 6, except that IgG was used as a model protein instead of lysozyme and BSA.

Series [2] can be described thus: Incorporation of protein into charged microparticles. The format is physicochemical. As to conditions: neutral or physiological pH.

Take IgG: the protein released result in series [1] (after about 60 days, gels prepared in analogy to example 5) is on record as “approx. 50%”. For the same substance, in series [1] (gels of oppositely charged microparticles), the “release rate compared with the other model proteins” value is “substantially slower”.

With lysozyme, in series [2], the “incorporation into negatively charged microparticles” value is recorded as “easily incorporated” and the “incorporation into positively charged microparticles” value was “not very efficiently incorporated”. For the same substance, in series [1] (12.5%-gel (solid content about 12.5%)), the “time to reach a release of 50% of protein” value was “about 20 h”. Also, in series [1] (25.5%-gel (so in the source)), the “time to reach a release of 50% of protein” value is “about 85 h”.
